Experiments:
[1] = biological target: human MCSP expressed on tumor cells (human, UniProt Q6UVK1 30-2322); test: cell-based or functional assay
[2] = biological target: T1, human CD3 expressed on Jurkat cells (human, UniProt P07766 23-207); test: flow cytometry on Jurkat cells
T1 construct: CD3 complex on Jurkat cells (ATCC TIB-152); also called huCD3
Method: Binding of the different bispecific constructs to CD3 on Jurkat cells (ATCC #TIB-152), and the respective tumor antigen on target cells, was determined by FACS. Briefly, cells were harvested, counted and checked for viability. 0.15 - 0.2 million cells per well (in PBS containing 0.1% BSA; 90 µl) were plated in a round-bottom 96-well plate and incubated with the indicated concentration of the bispecific constructs and corresponding IgG controls (10 µl) for 30 min at 4° C. For a better comparison, all constructs and IgG controls were normalized to same molarity. After the incubation, cells were centrifuged (5 min, 350 × g), washed with 150 µl PBS containing 0.1% BSA, resuspended and incubated for further 30 min at 4° C. with 12 µl/well of a FITC-or PE-conjugated secondary antibody. Bound constructs were detected using a FACSCantoII (Software FACS Diva). The “(scFv)₂” molecule was detected using a FITC-conjugated anti-His antibody (Lucerna, #RHIS-45F-Z). For all other molecules, a FITC- or PE-conjugated AffiniPure F(ab′)2 Fragment goat anti-human IgG Fcγ Fragment Specific (Jackson Immuno Research Lab # 109-096-098 / working solution 1:20, or #109-116-170 / working solution 1:80, respectively) was used. Cells were washed by addition of 120 µl/well PBS containing 0.1% BSA and centrifugation at 350 × g for 5 min. A second washing step was performed with 150 µl/well PBS containing 0.1% BSA. Unless otherwise indicated, cells were fixed with 100 µl/well fixation buffer (BD #554655) for 15 min at 4° C. in the dark, centrifuged for 6 min at 400 × g and kept in 200 µl/well PBS containing 0.1% BSA until the samples were measured with FACS CantoII. EC50 values were calculated using the GraphPad Prism software.
As a control, the equivalent maximum concentration of the corresponding IgGs and the background staining due to the labeled 2ndary antibody (goat anti-human FITC-conjugated AffiniPure F(ab′)2 Fragment, Fcγ Fragment-specific, Jackson Immuno Research Lab # 109-096-098) were assessed as well.

[3] = biological target: T2, human CEA expressed on tumor cells (human, UniProt P06731 35-702); test: cell-based or functional assay
T2 sequence (looked up): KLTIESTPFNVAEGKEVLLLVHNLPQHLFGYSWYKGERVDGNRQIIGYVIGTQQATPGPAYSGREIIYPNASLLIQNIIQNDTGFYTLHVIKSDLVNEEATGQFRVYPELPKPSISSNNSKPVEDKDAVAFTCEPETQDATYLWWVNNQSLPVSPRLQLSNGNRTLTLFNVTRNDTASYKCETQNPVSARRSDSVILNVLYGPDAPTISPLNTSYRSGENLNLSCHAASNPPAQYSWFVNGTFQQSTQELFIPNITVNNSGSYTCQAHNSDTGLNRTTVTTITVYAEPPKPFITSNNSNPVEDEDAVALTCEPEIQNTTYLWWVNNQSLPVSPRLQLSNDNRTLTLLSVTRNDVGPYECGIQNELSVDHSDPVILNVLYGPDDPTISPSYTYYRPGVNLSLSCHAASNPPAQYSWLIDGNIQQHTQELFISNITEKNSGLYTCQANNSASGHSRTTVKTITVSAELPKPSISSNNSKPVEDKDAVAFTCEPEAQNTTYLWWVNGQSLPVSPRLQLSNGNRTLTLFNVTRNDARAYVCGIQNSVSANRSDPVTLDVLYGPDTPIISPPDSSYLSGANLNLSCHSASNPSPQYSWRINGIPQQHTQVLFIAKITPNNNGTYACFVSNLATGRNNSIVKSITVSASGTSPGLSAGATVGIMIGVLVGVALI

human MCSP expressed on tumor cells, sequence (Q6UVK1 30-2322): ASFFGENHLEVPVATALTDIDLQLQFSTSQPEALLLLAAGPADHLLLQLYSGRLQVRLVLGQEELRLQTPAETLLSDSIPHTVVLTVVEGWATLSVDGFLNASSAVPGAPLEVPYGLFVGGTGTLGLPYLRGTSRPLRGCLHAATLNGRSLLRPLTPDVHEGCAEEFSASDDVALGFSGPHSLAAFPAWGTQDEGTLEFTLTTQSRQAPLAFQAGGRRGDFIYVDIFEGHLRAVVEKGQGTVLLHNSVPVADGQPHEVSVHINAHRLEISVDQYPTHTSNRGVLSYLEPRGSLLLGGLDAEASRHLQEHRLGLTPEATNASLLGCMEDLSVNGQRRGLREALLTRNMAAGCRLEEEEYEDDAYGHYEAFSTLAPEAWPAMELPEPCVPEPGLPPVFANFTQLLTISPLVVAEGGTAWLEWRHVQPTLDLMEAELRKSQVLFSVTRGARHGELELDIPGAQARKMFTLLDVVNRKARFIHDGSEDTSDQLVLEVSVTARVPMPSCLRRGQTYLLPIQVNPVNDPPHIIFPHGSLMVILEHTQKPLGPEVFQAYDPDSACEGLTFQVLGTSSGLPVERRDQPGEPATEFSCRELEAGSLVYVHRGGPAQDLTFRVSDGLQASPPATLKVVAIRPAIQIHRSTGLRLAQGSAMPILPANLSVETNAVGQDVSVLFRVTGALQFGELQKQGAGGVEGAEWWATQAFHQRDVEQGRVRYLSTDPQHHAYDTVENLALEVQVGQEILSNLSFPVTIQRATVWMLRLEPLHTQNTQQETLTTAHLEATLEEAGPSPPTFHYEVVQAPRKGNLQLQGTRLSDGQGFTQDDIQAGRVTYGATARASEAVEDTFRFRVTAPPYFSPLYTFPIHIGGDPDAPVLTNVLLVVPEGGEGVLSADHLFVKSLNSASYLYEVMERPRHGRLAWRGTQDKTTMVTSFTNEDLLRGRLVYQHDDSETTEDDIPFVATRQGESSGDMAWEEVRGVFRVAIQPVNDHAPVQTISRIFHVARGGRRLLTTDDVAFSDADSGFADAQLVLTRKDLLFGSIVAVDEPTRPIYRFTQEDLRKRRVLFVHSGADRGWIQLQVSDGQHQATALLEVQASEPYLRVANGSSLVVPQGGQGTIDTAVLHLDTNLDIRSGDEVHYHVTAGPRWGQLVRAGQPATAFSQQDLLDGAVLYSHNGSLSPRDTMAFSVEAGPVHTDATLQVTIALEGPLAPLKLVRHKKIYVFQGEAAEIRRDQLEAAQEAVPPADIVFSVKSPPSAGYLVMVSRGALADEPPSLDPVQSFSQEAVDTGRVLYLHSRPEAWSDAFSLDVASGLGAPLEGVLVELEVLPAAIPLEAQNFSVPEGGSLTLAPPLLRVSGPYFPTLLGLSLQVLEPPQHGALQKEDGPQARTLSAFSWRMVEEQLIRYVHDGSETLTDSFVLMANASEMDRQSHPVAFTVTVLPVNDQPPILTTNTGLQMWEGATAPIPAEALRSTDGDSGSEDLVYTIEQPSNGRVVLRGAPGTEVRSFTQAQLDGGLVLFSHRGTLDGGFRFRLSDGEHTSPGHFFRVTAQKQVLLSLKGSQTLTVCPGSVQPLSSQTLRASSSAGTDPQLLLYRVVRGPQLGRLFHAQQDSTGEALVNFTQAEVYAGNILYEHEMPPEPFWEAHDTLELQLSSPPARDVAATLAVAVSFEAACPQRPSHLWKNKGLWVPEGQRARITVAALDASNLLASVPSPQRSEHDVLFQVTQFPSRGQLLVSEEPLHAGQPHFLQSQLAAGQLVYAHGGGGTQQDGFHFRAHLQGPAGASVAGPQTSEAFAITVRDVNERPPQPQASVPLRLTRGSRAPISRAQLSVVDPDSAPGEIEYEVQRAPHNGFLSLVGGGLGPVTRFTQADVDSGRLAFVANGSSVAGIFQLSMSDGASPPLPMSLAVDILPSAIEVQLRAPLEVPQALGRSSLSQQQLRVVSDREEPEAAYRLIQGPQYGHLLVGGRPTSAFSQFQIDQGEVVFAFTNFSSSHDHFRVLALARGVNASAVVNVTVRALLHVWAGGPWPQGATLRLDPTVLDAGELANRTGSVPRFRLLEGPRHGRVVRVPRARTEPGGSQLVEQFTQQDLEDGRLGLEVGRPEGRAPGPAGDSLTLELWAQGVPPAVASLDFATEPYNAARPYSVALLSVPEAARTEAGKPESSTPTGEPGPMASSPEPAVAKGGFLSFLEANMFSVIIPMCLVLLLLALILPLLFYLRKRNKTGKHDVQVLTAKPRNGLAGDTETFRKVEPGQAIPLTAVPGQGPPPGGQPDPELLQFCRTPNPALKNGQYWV
T1 sequence (P07766 23-207 limits assumed): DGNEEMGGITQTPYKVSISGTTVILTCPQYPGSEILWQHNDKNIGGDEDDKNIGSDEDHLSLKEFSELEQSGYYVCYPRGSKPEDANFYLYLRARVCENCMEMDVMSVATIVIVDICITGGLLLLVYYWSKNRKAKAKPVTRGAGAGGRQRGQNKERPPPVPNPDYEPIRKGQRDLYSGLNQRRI

B1: “2+1 IgG Crossfab (CL/CH1)”; CL/CH1 exchange (M4-3 ML2/V9) (bispecific antibody)
heavy 1: not shown
heavy 2: QVQLQESGPGLVKPSQTLSLTCTVSGGSITSGYYWNWIRQHPGKGLEWIGYITYDGSNNYNPSLKSRVTISRDTSKNQFSLKLSSVTAADTAVYYCADFDYWGQGTLVTVSSASTKGPSVFPLAPSSKSTSGGTAALGCLVKDYFPEPVTVSWNSGALTSGVHTFPAVLQSSGLYSLSSVVTVPSSSLGTQTYICNVNHKPSNTKVDKKVEPKSCDKTHTCPPCPAPEAAGGPSVFLFPPKPKDTLMISRTPEVTCVVVDVSHEDPEVKFNWYVDGVEVHNAKTKPREEQYNSTYRVVSVLTVLHQDWLNGKEYKCKVSNKALGAPIEKTISKAKGQPREPQVCTLPPSRDELTKNQVSLSCAVKGFYPSDIAVEWESNGQPENNYKTTPPVLDSDGSFFLVSKLTVDKSRWQQGNVFSCSVMHEALHNHYTQKSLSLSPGK
light 1: not shown
light 2: DIQMTQSPSSLSASVGDRVTITCRASQDIRNYLNWYQQKPGKAPKLLIYYTSRLESGVPSRFSGSGSGTDYTLTISSLQPEDFATYYCQQGNTLPWTFGQGTKVEIKSSASTKGPSVFPLAPSSKSTSGGTAALGCLVKDYFPEPVTVSWNSGALTSGVHTFPAVLQSSGLYSLSSVVTVPSSSLGTQTYICNVNHKPSNTKVDKKVEPKSC
- EC50 of killing (LDH release) of MV-3 cells, human PBMCs, E:T 10:1, 27 h [1]: ~11.7 pM
- EC50 of killing (LDH release) of WM266-4 cells, human PBMCs, E:T 10:1, 26 h [1]: 12.9 pM

B2: “1+1 IgG Crossfab light chain (LC) fusion” (CH1A1A/V9) (bispecific antibody)
heavy: not shown
chain: DKTHTCPPCPAPEAAGGPSVFLFPPKPKDTLMISRTPEVTCVVVDVSHEDPEVKFNWYVDGVEVHNAKTKPREEQYNSTYRVVSVLTVLHQDWLNGKEYKCKVSNKALGAPIEKTISKAKGQPREPQVCTLPPSRDELTKNQVSLSCAVKGFYPSDIAVEWESNGQPENNYKTTPPVLDSDGSFFLVSKLTVDKSRWQQGNVFSCSVMHEALHNHYTQKSLSLSPGK
light 1: DIQMTQSPSSLSASVGDRVTITCKASAAVGTYVAWYQQKPGKAPKLLIYSASYRKRGVPSRFSGSGSGTDFTLTISSLQPEDFATYYCHQYYTYPLFTFGQGTKLEIKRTVAAPSVFIFPPSDEQLKSGTASVVCLLNNFYPREAKVQWKVDNALQSGNSQESVTEQDSKDSTYSLSSTLTLSKADYEKHKVYACEVTHQGLSSPVTKSFNRGECGGGGSGGGGSGGGGSGGGGSEVQLVESGGGLVQPGGSLRLSCAASGYSFTGYTMNWVRQAPGKGLEWVALINPYKGVSTYNQKFKDRFTISVDKSKNTAYLQMNSLRAEDTAVYYCARSGYYGDSDWYFDVWGQGTLVTVSSASVAAPSVFIFPPSDEQLKSGTASVVCLLNNFYPREAKVQWKVDNALQSGNSQESVTEQDSKDSTYSLSSTLTLSKADYEKHKVYACEVTHQGLSSPVTKSFNRGEC
light 2: DIQMTQSPSSLSASVGDRVTITCRASQDIRNYLNWYQQKPGKAPKLLIYYTSRLESGVPSRFSGSGSGTDYTLTISSLQPEDFATYYCQQGNTLPWTFGQGTKVEIKSSASTKGPSVFPLAPSSKSTSGGTAALGCLVKDYFPEPVTVSWNSGALTSGVHTFPAVLQSSGLYSLSSVVTVPSSSLGTQTYICNVNHKPSNTKVDKKVEPKSC
notes: also called 1+1 IgG Crossfab LC fusion
- binding result [2]: binds
- EC50 of killing (LDH release) of LS-174T cells, human PBMCs, E:T 10:1, 28 h [3]: 1560 pM
- EC50 of killing (LDH release) of MC38-huCEA cells, human PBMCs, E:T 10:1, 24 h [3]: ~3200 pM
- EC50 of killing (LDH release) of MKN-45 cells, human PBMCs, E:T 10:1, 28 h [3]: 213 pM

B3: “2+1 IgG Crossfab (VL/VH)”; VL/VH exchange (M4-3 ML2/V9) (bispecific antibody)
heavy 1: not shown
heavy 2: QVQLQESGPGLVKPSQTLSLTCTVSGGSITSGYYWNWIRQHPGKGLEWIGYITYDGSNNYNPSLKSRVTISRDTSKNQFSLKLSSVTAADTAVYYCADFDYWGQGTLVTVSSASTKGPSVFPLAPSSKSTSGGTAALGCLVKDYFPEPVTVSWNSGALTSGVHTFPAVLQSSGLYSLSSVVTVPSSSLGTQTYICNVNHKPSNTKVDKKVEPKSCDKTHTCPPCPAPEAAGGPSVFLFPPKPKDTLMISRTPEVTCVVVDVSHEDPEVKFNWYVDGVEVHNAKTKPREEQYNSTYRVVSVLTVLHQDWLNGKEYKCKVSNKALGAPIEKTISKAKGQPREPQVCTLPPSRDELTKNQVSLSCAVKGFYPSDIAVEWESNGQPENNYKTTPPVLDSDGSFFLVSKLTVDKSRWQQGNVFSCSVMHEALHNHYTQKSLSLSPGK
light 1: not shown
light 2: EVQLVESGGGLVQPGGSLRLSCAASGYSFTGYTMNWVRQAPGKGLEWVALINPYKGVSTYNQKFKDRFTISVDKSKNTAYLQMNSLRAEDTAVYYCARSGYYGDSDWYFDVWGQGTLVTVSSASVAAPSVFIFPPSDEQLKSGTASVVCLLNNFYPREAKVQWKVDNALQSGNSQESVTEQDSKDSTYSLSSTLTLSKADYEKHKVYACEVTHQGLSSPVTKSFNRGEC
- EC50 of killing (LDH release) of MV-3 cells, human PBMCs, E:T 10:1, 27 h [1]: ~82.2 pM
- EC50 of killing (LDH release) of WM266-4 cells, human PBMCs, E:T 10:1, 26 h [1]: 16.8 pM

B4: CD3/MCSP “1+1 CrossMab”; CL/CH1 exchange (LC007/V9) (bispecific antibody, human IgG1, kappa, L234A L235A)
heavy 1: not shown
heavy 2: EVQLQESGPGLVKPSQSLSLTCSVTGYSITSGYYWNWIRQFPGNKLEWMGYITYDGSNNYNPSLKNRISITRDTSKNQFFLKLNSVTTEDTATYYCADFDYWGQGTTLTVSSASTKGPSVFPLAPSSKSTSGGTAALGCLVKDYFPEPVTVSWNSGALTSGVHTFPAVLQSSGLYSLSSVVTVPSSSLGTQTYICNVNHKPSNTKVDKKVEPKSCDKTHTCPPCPAPEAAGGPSVFLFPPKPKDTLMISRTPEVTCVVVDVSHEDPEVKFNWYVDGVEVHNAKTKPREEQYNSTYRVVSVLTVLHQDWLNGKEYKCKVSNKALGAPIEKTISKAKGQPREPQVCTLPPSRDELTKNQVSLSCAVKGFYPSDIAVEWESNGQPENNYKTTPPVLDSDGSFFLVSKLTVDKSRWQQGNVFSCSVMHEALHNHYTQKSLSLSPGK
light 1: DIVLTQSPSSLSASLGDRVTISCSASQGIRNYLNWYQQRPDGTVKLLIYYTSSLHSGVPSRFSGSGSGTDYSLTISNLEPEDIATYYCQQYSKLPWTFGGGTKLEIKRTVAAPSVFIFPPSDEQLKSGTASVVCLLNNFYPREAKVQWKVDNALQSGNSQESVTEQDSKDSTYSLSSTLTLSKADYEKHKVYACEVTHQGLSSPVTKSFNRGEC
light 2: DIQMTQSPSSLSASVGDRVTITCRASQDIRNYLNWYQQKPGKAPKLLIYYTSRLESGVPSRFSGSGSGTDYTLTISSLQPEDFATYYCQQGNTLPWTFGQGTKVEIKSSASTKGPSVFPLAPSSKSTSGGTAALGCLVKDYFPEPVTVSWNSGALTSGVHTFPAVLQSSGLYSLSSVVTVPSSSLGTQTYICNVNHKPSNTKVDKKVEPKSC
- EC50 of killing (LDH release) of MV-3 cells, human PBMCs, E:T 10:1, 21 h [1]: 88.4 pM
- EC50 of killing (LDH release) of WM266-4 cells, human PBMCs, E:T 10:1, 21 h [1]: 53.9 pM

B5: CD3/MCSP “1+1 IgG Crossfab”; VL/VH exchange (LC007/V9) (bispecific antibody)
heavy: DIQMTQSPSSLSASVGDRVTITCRASQDIRNYLNWYQQKPGKAPKLLIYYTSRLESGVPSRFSGSGSGTDYTLTISSLQPEDFATYYCQQGNTLPWTFGQGTKVEIKSSASTKGPSVFPLAPSSKSTSGGTAALGCLVKDYFPEPVTVSWNSGALTSGVHTFPAVLQSSGLYSLSSVVTVPSSSLGTQTYICNVNHKPSNTKVDKKVEPKSCGGGGSGGGGSEVQLQESGPGLVKPSQSLSLTCSVTGYSITSGYYWNWIRQFPGNKLEWMGYITYDGSNNYNPSLKNRISITRDTSKNQFFLKLNSVTTEDTATYYCADFDYWGQGTTLTVSSASTKGPSVFPLAPSSKSTSGGTAALGCLVKDYFPEPVTVSWNSGALTSGVHTFPAVLQSSGLYSLSSVVTVPSSSLGTQTYICNVNHKPSNTKVDKKVEPKSCDKTHTCPPCPAPEAAGGPSVFLFPPKPKDTLMISRTPEVTCVVVDVSHEDPEVKFNWYVDGVEVHNAKTKPREEQYNSTYRVVSVLTVLHQDWLNGKEYKCKVSNKALGAPIEKTISKAKGQPREPQVCTLPPSRDELTKNQVSLSCAVKGFYPSDIAVEWESNGQPENNYKTTPPVLDSDGSFFLVSKLTVDKSRWQQGNVFSCSVMHEALHNHYTQKSLSLSPGK
chain: not shown
light 1: DIVLTQSPSSLSASLGDRVTISCSASQGIRNYLNWYQQRPDGTVKLLIYYTSSLHSGVPSRFSGSGSGTDYSLTISNLEPEDIATYYCQQYSKLPWTFGGGTKLEIKRTVAAPSVFIFPPSDEQLKSGTASVVCLLNNFYPREAKVQWKVDNALQSGNSQESVTEQDSKDSTYSLSSTLTLSKADYEKHKVYACEVTHQGLSSPVTKSFNRGEC
light 2: EVQLVESGGGLVQPGGSLRLSCAASGYSFTGYTMNWVRQAPGKGLEWVALINPYKGVSTYNQKFKDRFTISVDKSKNTAYLQMNSLRAEDTAVYYCARSGYYGDSDWYFDVWGQGTLVTVSSASVAAPSVFIFPPSDEQLKSGTASVVCLLNNFYPREAKVQWKVDNALQSGNSQESVTEQDSKDSTYSLSSTLTLSKADYEKHKVYACEVTHQGLSSPVTKSFNRGEC
- EC50 of killing (LDH release) of MV-3 cells, human PBMCs, E:T 10:1, 21 h [1]: 40.9 pM
- EC50 of killing (LDH release) of WM266-4 cells, human PBMCs, E:T 10:1, 21 h [1]: 28.4 pM

Reference: patent US20230340160A1 (published 2023)
